Source: patent US20160272693A1 (ZEALAND PHARMA A S, published 2016)
Like-named read-outs stand apart in the source and are kept apart here. *1 amine or outer side, *2 acyl side, *3 side chain or, on linkers, in order; H or OH if unused. Bridges are numbered along the chain shown (N, C = ends). [ ]: non-standard residue; d: D form. The star is where a group is joined. C20 diacid = O=C(O)CCCCCCCCCCCCCCCCCCC(=O)*; γGlu = O=C(O)[C@H](CCC(=O)[*:2])N[*:1]; Hyp = O=C(O)[C@@H]1C[C@@H](O)CN1; NMeI = CC[C@H](C)[C@H](NC)C(=O)O; Aad = N[C@@H](CCCC(=O)O)C(=O)O; Sar = CNCC(=O)O

Experiments:
[1] = molecular target: T1, human amylin receptor 3 (hAMYR3), hCTR2 co-expressed with human receptor activity modifying protein 3 (hRAMP3) (human, UniProt P30988 25-474; O60896 24-148); assay: cell-based or functional assay
T1 sequence (looked up) 1: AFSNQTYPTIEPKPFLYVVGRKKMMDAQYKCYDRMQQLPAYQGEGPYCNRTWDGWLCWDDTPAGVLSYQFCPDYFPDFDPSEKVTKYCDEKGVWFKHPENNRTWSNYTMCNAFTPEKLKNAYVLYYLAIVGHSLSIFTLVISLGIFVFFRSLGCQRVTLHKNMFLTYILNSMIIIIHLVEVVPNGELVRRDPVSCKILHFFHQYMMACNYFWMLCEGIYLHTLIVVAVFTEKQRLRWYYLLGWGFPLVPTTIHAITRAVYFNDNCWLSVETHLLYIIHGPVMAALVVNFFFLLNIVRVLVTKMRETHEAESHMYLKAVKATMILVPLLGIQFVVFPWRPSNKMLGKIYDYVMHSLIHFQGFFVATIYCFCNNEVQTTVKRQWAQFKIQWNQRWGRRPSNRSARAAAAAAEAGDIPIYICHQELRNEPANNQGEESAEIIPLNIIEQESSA
T1 sequence (looked up) 2: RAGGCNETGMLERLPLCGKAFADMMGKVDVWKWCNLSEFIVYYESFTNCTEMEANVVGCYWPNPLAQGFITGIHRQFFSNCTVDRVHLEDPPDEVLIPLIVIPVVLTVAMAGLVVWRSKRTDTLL

[2] = molecular target: T1, human amylin receptor 3 (hAMYR3), hCTR2 …; assay: cell-based or functional assay; remark: listed apart in the source

| Binder | hAMYR3 EC50 (nM); cAMP induction [1] [nM] | hAMYR3 EC50 (nM); cAMP induction [2] [nM] |
| --- | --- | --- |
| {C20 diacid-γGlu}-RCQTATCATERLAHFLQRSSF[Sar]A[NMeI]LSSTEVGSNT[Hyp]-NH2 (disulfide 2-7; SMILES CC[C@H](C)[C@@H](C(=O)N[C@@H](CC(C)C)C(=O)N[C@@H](CO)C(=O)N[C@@H](CO)C(=O)N[C@H](C(=O)N[C@@H](CCC(=O)O)C(=O)N[C@H](C(=O)NCC(=O)N[C@@H](CO)C(=O)N[C@@H](CC(N)=O)C(=O)N[C@H](C(=O)N1C[C@H](O)C[C@H]1C(N)=O)[C@@H](C)O)C(C)C)[C@@H](C)O)N(C)C(=O)[C@H](C)NC(=O)CN(C)C(=O)[C@H](Cc1ccccc1)NC(=O)[C@H](CO)NC(=O)[C@H](CO)NC(=O)[C@H](CCCNC(=N)N)NC(=O)[C@H](CCC(N)=O)NC(=O)[C@H](CC(C)C)NC(=O)[C@H](Cc1ccccc1)NC(=O)[C@H](Cc1c[nH]cn1)NC(=O)[C@H](C)NC(=O)[C@H](CC(C)C)NC(=O)[C@H](CCCNC(=N)N)NC(=O)[C@H](CCC(=O)O)NC(=O)[C@@H](NC(=O)[C@H](C)NC(=O)[C@@H]1CSSC[C@H](NC(=O)[C@H](CCCNC(=N)N)NC(=O)CC[C@H](NC(=O)CCCCCCCCCCCCCCCCCCC(=O)O)C(=O)O)C(=O)N[C@@H](CCC(N)=O)C(=O)N[C@@H]([C@@H](C)O)C(=O)N[C@@H](C)C(=O)N[C@@H]([C@@H](C)O)C(=O)N1)[C@@H](C)O) [[19CD]-isoGlu-R-C( )-QTAT-C( )-ATERLAHFLQRSSF-Gly(Me)-A-Ile(Me)-LSSTEVGSNT-Hyp-NH2 (Compd. 57)] | 0.11 | 0.11 |
| {C20 diacid}-[γGlu]RCGTATCATERLA[Aad]FLQRSSF[Sar]A[NMeI]LSSTEVGSNT[Hyp]-NH2 (disulfide 3-8; SMILES CC[C@H](C)[C@@H](C(=O)N[C@@H](CC(C)C)C(=O)N[C@@H](CO)C(=O)N[C@@H](CO)C(=O)N[C@H](C(=O)N[C@@H](CCC(=O)O)C(=O)N[C@H](C(=O)NCC(=O)N[C@@H](CO)C(=O)N[C@@H](CC(N)=O)C(=O)N[C@H](C(=O)N1C[C@H](O)C[C@H]1C(N)=O)[C@@H](C)O)C(C)C)[C@@H](C)O)N(C)C(=O)[C@H](C)NC(=O)CN(C)C(=O)[C@H](Cc1ccccc1)NC(=O)[C@H](CO)NC(=O)[C@H](CO)NC(=O)[C@H](CCCNC(=N)N)NC(=O)[C@H](CCC(N)=O)NC(=O)[C@H](CC(C)C)NC(=O)[C@H](Cc1ccccc1)NC(=O)[C@H](CCCC(=O)O)NC(=O)[C@H](C)NC(=O)[C@H](CC(C)C)NC(=O)[C@H](CCCNC(=N)N)NC(=O)[C@H](CCC(=O)O)NC(=O)[C@@H](NC(=O)[C@H](C)NC(=O)[C@@H]1CSSC[C@H](NC(=O)[C@H](CCCNC(=N)N)NC(=O)CC[C@H](NC(=O)CCCCCCCCCCCCCCCCCCC(=O)O)C(=O)O)C(=O)NCC(=O)N[C@@H]([C@@H](C)O)C(=O)N[C@@H](C)C(=O)N[C@@H]([C@@H](C)O)C(=O)N1)[C@@H](C)O) [[19CD]-isoGlu-R-C( )-GTAT-C( )-ATERLA-Aad-FLQRSSF-Gly(Me)-A-Ile(Me)-LSSTEVGSNT-Hyp-NH2 (Compd. 55)] | 0.08 | 0.08 |
| {C20 diacid}-[γGlu]RCQTATCATDRLA[Aad]FLQRSSF[Sar]A[NMeI]LSSTEVGSNT[Hyp]-NH2 (disulfide 3-8; SMILES CC[C@H](C)[C@@H](C(=O)N[C@@H](CC(C)C)C(=O)N[C@@H](CO)C(=O)N[C@@H](CO)C(=O)N[C@H](C(=O)N[C@@H](CCC(=O)O)C(=O)N[C@H](C(=O)NCC(=O)N[C@@H](CO)C(=O)N[C@@H](CC(N)=O)C(=O)N[C@H](C(=O)N1C[C@H](O)C[C@H]1C(N)=O)[C@@H](C)O)C(C)C)[C@@H](C)O)N(C)C(=O)[C@H](C)NC(=O)CN(C)C(=O)[C@H](Cc1ccccc1)NC(=O)[C@H](CO)NC(=O)[C@H](CO)NC(=O)[C@H](CCCNC(=N)N)NC(=O)[C@H](CCC(N)=O)NC(=O)[C@H](CC(C)C)NC(=O)[C@H](Cc1ccccc1)NC(=O)[C@H](CCCC(=O)O)NC(=O)[C@H](C)NC(=O)[C@H](CC(C)C)NC(=O)[C@H](CCCNC(=N)N)NC(=O)[C@H](CC(=O)O)NC(=O)[C@@H](NC(=O)[C@H](C)NC(=O)[C@@H]1CSSC[C@H](NC(=O)[C@H](CCCNC(=N)N)NC(=O)CC[C@H](NC(=O)CCCCCCCCCCCCCCCCCCC(=O)O)C(=O)O)C(=O)N[C@@H](CCC(N)=O)C(=O)N[C@@H]([C@@H](C)O)C(=O)N[C@@H](C)C(=O)N[C@@H]([C@@H](C)O)C(=O)N1)[C@@H](C)O) [[19CD]-isoGlu-R-C( )-QTAT-C( )-ATDRLA-Aad-FLQRSSF-Gly(Me)-A-Ile(Me)-LSSTEVGSNT-Hyp-NH2 (Compd. 89)] | 0.2 | 0.2 |
| {C20 diacid-γGlu}-RCNTATCATQRLADFLQRSSF[Sar]A[NMeI]LSSTEVGSNT[Hyp]-NH2 (disulfide 2-7; SMILES CC[C@H](C)[C@@H](C(=O)N[C@@H](CC(C)C)C(=O)N[C@@H](CO)C(=O)N[C@@H](CO)C(=O)N[C@H](C(=O)N[C@@H](CCC(=O)O)C(=O)N[C@H](C(=O)NCC(=O)N[C@@H](CO)C(=O)N[C@@H](CC(N)=O)C(=O)N[C@H](C(=O)N1C[C@H](O)C[C@H]1C(N)=O)[C@@H](C)O)C(C)C)[C@@H](C)O)N(C)C(=O)[C@H](C)NC(=O)CN(C)C(=O)[C@H](Cc1ccccc1)NC(=O)[C@H](CO)NC(=O)[C@H](CO)NC(=O)[C@H](CCCNC(=N)N)NC(=O)[C@H](CCC(N)=O)NC(=O)[C@H](CC(C)C)NC(=O)[C@H](Cc1ccccc1)NC(=O)[C@H](CC(=O)O)NC(=O)[C@H](C)NC(=O)[C@H](CC(C)C)NC(=O)[C@H](CCCNC(=N)N)NC(=O)[C@H](CCC(N)=O)NC(=O)[C@@H](NC(=O)[C@H](C)NC(=O)[C@@H]1CSSC[C@H](NC(=O)[C@H](CCCNC(=N)N)NC(=O)CC[C@H](NC(=O)CCCCCCCCCCCCCCCCCCC(=O)O)C(=O)O)C(=O)N[C@@H](CC(N)=O)C(=O)N[C@@H]([C@@H](C)O)C(=O)N[C@@H](C)C(=O)N[C@@H]([C@@H](C)O)C(=O)N1)[C@@H](C)O) [[19CD]-isoGlu-R-C( )-NTAT-C( )-ATQRLADFLQRSSF-Gly(Me)-A-Ile(Me)-LSSTEVGSNT-Hyp-NH2 (Compd. 49)] | 0.15 |  |

Now from value to binder:

| hAMYR3 EC50 (nM); cAMP induction [1] [nM] | hAMYR3 EC50 (nM); cAMP induction [2] [nM] | Binder |
| --- | --- | --- |
|  | 0.59 | {C20 diacid-γGlu}-RCQTATCATERLAHFLQRSSNNF[Sar]A[NMeI]LSSTEVGSNT[Hyp]-NH2 (disulfide 2-7; SMILES CC[C@H](C)[C@@H](C(=O)N[C@@H](CC(C)C)C(=O)N[C@@H](CO)C(=O)N[C@@H](CO)C(=O)N[C@H](C(=O)N[C@@H](CCC(=O)O)C(=O)N[C@H](C(=O)NCC(=O)N[C@@H](CO)C(=O)N[C@@H](CC(N)=O)C(=O)N[C@H](C(=O)N1C[C@H](O)C[C@H]1C(N)=O)[C@@H](C)O)C(C)C)[C@@H](C)O)N(C)C(=O)[C@H](C)NC(=O)CN(C)C(=O)[C@H](Cc1ccccc1)NC(=O)[C@H](CC(N)=O)NC(=O)[C@H](CC(N)=O)NC(=O)[C@H](CO)NC(=O)[C@H](CO)NC(=O)[C@H](CCCNC(=N)N)NC(=O)[C@H](CCC(N)=O)NC(=O)[C@H](CC(C)C)NC(=O)[C@H](Cc1ccccc1)NC(=O)[C@H](Cc1c[nH]cn1)NC(=O)[C@H](C)NC(=O)[C@H](CC(C)C)NC(=O)[C@H](CCCNC(=N)N)NC(=O)[C@H](CCC(=O)O)NC(=O)[C@@H](NC(=O)[C@H](C)NC(=O)[C@@H]1CSSC[C@H](NC(=O)[C@H](CCCNC(=N)N)NC(=O)CC[C@H](NC(=O)CCCCCCCCCCCCCCCCCCC(=O)O)C(=O)O)C(=O)N[C@@H](CCC(N)=O)C(=O)N[C@@H]([C@@H](C)O)C(=O)N[C@@H](C)C(=O)N[C@@H]([C@@H](C)O)C(=O)N1)[C@@H](C)O) [[19CD]-isoGlu-R-C( )-QTAT-C( )-ATERLAHFLQRSSNNF-Gly(Me)-A-Ile(Me)-LSSTEVGSNT-Hyp-NH2 (Compd. 99)] |
| 0.15 | 0.15 | {C20 diacid-γGlu}-RCNTATCATQRLAEFLHHSSNNFGPILPPTNVGSNTP-NH2 (disulfide 2-7; SMILES CC[C@H](C)[C@H](NC(=O)[C@@H]1CCCN1C(=O)CNC(=O)[C@H](Cc1ccccc1)NC(=O)[C@H](CC(N)=O)NC(=O)[C@H](CC(N)=O)NC(=O)[C@H](CO)NC(=O)[C@H](CO)NC(=O)[C@H](Cc1c[nH]cn1)NC(=O)[C@H](Cc1c[nH]cn1)NC(=O)[C@H](CC(C)C)NC(=O)[C@H](Cc1ccccc1)NC(=O)[C@H](CCC(=O)O)NC(=O)[C@H](C)NC(=O)[C@H](CC(C)C)NC(=O)[C@H](CCCNC(=N)N)NC(=O)[C@H](CCC(N)=O)NC(=O)[C@@H](NC(=O)[C@H](C)NC(=O)[C@@H]1CSSC[C@H](NC(=O)[C@H](CCCNC(=N)N)NC(=O)CC[C@H](NC(=O)CCCCCCCCCCCCCCCCCCC(=O)O)C(=O)O)C(=O)N[C@@H](CC(N)=O)C(=O)N[C@@H]([C@@H](C)O)C(=O)N[C@@H](C)C(=O)N[C@@H]([C@@H](C)O)C(=O)N1)[C@@H](C)O)C(=O)N[C@@H](CC(C)C)C(=O)N1CCC[C@H]1C(=O)N1CCC[C@H]1C(=O)N[C@H](C(=O)N[C@@H](CC(N)=O)C(=O)N[C@H](C(=O)NCC(=O)N[C@@H](CO)C(=O)N[C@@H](CC(N)=O)C(=O)N[C@H](C(=O)N1CCC[C@H]1C(N)=O)[C@@H](C)O)C(C)C)[C@@H](C)O) |
